# Experimental data: the Human Domainome abundance scans (Beltran et al. 2025)
# ± gives the uncertainty stated by the source.
# B1: Pituitary-specific positive transcription factor 1, residues 130 to 198; numbered along this chain, P28069 (parent)
# chain: RELEKFANEFKVRRIKLGYTQTNVGEALAAVHGSEFSQTTICRFENLQLSFKNACKLKAILSKWLEEAE
# Variants of: B1
# Assay: abundance fitness (aPCA) (normalised: wild type 0, dead -1); higher = more abundant; growth selection in yeast, the domain comes from the species named
# Settings: Homo sapiens
row,Variant,abundance fitness
1,N53Q,0 ± 0.084
2,N53P,-0.115 ± 0.055
3,E2A,-0.412 ± 0.087
4,E2D,-0.109 ± 0.2
5,E2Q,-0.523 ± 0.16
6,E2P,-0.462 ± 0.19
7,I60F,-0.725 ± 0.22
8,I60Y,-0.347 ± 0.14
9,I60M,-0.239 ± 0.079
10,I60S,-0.568 ± 0.099
11,I60V,-0.024 ± 0.084
12,I60T,-0.51 ± 0.08
13,I60Q,-0.559 ± 0.18
14,I60P,-0.2 ± 0.08
15,E26H,-0.486 ± 0.12
16,E26Q,-0.527 ± 0.36
17,F6V,-0.941 ± 0.11
18,F6C,-0.992 ± 0.17
19,F6S,-0.997 ± 0.13
20,F6T,-0.992 ± 0.17
21,F6R,-0.844 ± 0.086

row,Variant,abundance fitness
1,F6A,-0.666 ± 0.11
2,F6M,-0.753 ± 0.095
3,T40Q,-0.211 ± 0.075
4,T40L,-0.003 ± 0.073
5,K58L,-0.848 ± 0.081
6,K58T,-0.477 ± 0.072
7,K58Y,-0.511 ± 0.098
8,K58S,-0.58 ± 0.069
9,L49E,-0.616 ± 0.14
10,L49P,-0.687 ± 0.35
11,L49D,-0.847 ± 0.31
12,L49C,-0.208 ± 0.067
13,L49N,-0.818 ± 0.21
14,E9M,-0.11 ± 0.056
15,E9F,-0.239 ± 0.23
16,E9C,-0.714 ± 0.26
17,E9T,-0.398 ± 0.077
18,E9Q,-0.188 ± 0.084
19,L61P,-0.728 ± 0.3
20,L61K,-0.572 ± 0.16
21,L61Y,-0.759 ± 0.13

row,Variant,abundance fitness
1,L61G,-0.757 ± 0.11
2,L61I,-0.841 ± 0.24
3,L61M,-0.491 ± 0.097
4,L61T,-0.778 ± 0.18
5,N8L,0.093 ± 0.072
6,N8Y,-0.094 ± 0.15
7,N8D,-0.532 ± 0.17
8,N8P,-0.783 ± 0.37
9,N8T,-0.04 ± 0.1
10,N8K,0.155 ± 0.12
11,N8I,0.024 ± 0.14
12,G18V,-0.912 ± 0.16
13,G18P,-0.608 ± 0.28
14,G18S,-0.838 ± 0.16
15,G18H,-0.742 ± 0.28
16,S37N,0.117 ± 0.069
17,S37M,-0.823 ± 0.11
18,S37I,-0.697 ± 0.21
19,S37E,-0.568 ± 0.13
20,S37D,0.199 ± 0.059
21,S37W,-0.925 ± 0.16

row,Variant,abundance fitness
1,S37H,-0.689 ± 0.15
2,G33L,-1.08 ± 0.12
3,G33M,-0.792 ± 0.14
4,G33Y,-0.96 ± 0.21
5,G33D,-0.721 ± 0.16
6,G33P,-0.393 ± 0.075
7,G33C,-0.791 ± 0.11
8,Q21I,-0.246 ± 0.088
9,Q21L,-0.138 ± 0.048
10,Q21Y,-0.325 ± 0.081
11,Q21V,-0.278 ± 0.064
12,Q21D,-0.674 ± 0.21
13,Q21R,-0.288 ± 0.063
14,Y19R,-0.718 ± 0.23
15,Y19H,-0.376 ± 0.38
16,Y19V,-0.855 ± 0.34
17,Y19F,-0.501 ± 0.4
18,Y19I,-0.382 ± 0.21
19,K16L,-0.468 ± 0.097
20,K16R,-0.027 ± 0.044
21,K16Y,-0.64 ± 0.12
